# Reference: the supplement of paper PMC10065799, “High-throughput profiling of sequence recognition by tyrosine kinases and SH2 domains using bacterial peptide display” (eLife, 2023)
# Tests used:
# [1] = target: Grb2 SH2 (UniProt P62993); experiment: SH2 binding enrichment of the phosphorylated peptide, bacterial display (enrichment ratio); higher = better substrate or ligand; peptides without Tyr show the background
# [2] = target: SHP2-C SH2; experiment: as above
# [3] = target: c-Src SH2; experiment: as above
# [4] = system: Fer (mouse); experiment: phosphorylation enrichment, bacterial display (enrichment ratio); higher = better substrate or ligand; peptides without Tyr show the background
# [5] = target: EPHB1 (UniProt P54762); experiment: as above
# Chain of EPHB1 (P54762 whole entry, looked up): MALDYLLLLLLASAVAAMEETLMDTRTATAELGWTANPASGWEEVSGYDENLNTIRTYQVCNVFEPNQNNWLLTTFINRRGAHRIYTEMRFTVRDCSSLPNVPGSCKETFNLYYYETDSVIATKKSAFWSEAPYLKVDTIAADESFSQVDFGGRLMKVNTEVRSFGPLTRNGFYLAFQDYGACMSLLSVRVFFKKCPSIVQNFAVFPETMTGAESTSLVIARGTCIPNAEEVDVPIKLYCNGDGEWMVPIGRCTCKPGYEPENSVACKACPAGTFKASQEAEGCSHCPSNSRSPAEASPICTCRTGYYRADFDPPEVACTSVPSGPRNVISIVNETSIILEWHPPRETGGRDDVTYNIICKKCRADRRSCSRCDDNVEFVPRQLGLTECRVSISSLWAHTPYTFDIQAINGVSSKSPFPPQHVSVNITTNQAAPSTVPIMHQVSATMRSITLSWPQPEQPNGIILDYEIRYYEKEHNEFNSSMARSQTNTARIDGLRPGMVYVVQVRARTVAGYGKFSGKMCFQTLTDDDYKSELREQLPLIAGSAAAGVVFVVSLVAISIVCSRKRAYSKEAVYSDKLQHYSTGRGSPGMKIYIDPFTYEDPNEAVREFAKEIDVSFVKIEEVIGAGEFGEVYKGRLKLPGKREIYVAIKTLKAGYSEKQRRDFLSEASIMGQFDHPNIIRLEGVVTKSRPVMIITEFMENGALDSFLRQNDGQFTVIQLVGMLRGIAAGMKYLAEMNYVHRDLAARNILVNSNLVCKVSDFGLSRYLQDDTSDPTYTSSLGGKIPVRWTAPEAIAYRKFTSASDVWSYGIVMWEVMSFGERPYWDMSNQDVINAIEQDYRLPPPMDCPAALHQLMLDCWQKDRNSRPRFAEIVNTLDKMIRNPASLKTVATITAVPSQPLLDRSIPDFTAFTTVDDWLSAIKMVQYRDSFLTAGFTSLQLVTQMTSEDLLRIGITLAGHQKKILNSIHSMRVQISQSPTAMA
# [6] = target: FGFR3 (UniProt P22607); experiment: as above
# Chain of FGFR3 (P22607 whole entry, looked up): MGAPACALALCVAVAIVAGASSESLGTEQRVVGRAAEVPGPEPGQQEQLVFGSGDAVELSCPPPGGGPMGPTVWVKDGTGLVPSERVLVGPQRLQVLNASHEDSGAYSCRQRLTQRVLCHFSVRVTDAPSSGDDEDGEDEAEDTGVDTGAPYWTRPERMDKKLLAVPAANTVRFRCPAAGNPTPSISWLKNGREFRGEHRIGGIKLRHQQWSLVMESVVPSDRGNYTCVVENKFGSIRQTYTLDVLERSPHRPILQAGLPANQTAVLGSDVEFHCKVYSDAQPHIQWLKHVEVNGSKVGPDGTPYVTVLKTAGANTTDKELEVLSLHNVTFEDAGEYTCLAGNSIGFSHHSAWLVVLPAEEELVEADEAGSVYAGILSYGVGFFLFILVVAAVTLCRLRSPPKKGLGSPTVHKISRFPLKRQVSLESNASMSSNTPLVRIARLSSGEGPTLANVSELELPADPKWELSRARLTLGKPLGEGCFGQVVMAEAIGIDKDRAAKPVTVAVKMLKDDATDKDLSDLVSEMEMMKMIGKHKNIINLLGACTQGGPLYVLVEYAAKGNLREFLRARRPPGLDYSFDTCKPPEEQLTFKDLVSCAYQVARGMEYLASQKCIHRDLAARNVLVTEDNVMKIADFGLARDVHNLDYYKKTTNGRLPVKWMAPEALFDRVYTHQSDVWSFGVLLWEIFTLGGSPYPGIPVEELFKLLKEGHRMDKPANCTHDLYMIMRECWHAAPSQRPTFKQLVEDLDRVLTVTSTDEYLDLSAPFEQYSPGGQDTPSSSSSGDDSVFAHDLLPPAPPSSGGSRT
# [7] = target: Jak2 (UniProt O60674); experiment: as above
# [8] = target: Fes (UniProt P07332); experiment: as above
# Chain of Fes (P07332 whole entry, looked up): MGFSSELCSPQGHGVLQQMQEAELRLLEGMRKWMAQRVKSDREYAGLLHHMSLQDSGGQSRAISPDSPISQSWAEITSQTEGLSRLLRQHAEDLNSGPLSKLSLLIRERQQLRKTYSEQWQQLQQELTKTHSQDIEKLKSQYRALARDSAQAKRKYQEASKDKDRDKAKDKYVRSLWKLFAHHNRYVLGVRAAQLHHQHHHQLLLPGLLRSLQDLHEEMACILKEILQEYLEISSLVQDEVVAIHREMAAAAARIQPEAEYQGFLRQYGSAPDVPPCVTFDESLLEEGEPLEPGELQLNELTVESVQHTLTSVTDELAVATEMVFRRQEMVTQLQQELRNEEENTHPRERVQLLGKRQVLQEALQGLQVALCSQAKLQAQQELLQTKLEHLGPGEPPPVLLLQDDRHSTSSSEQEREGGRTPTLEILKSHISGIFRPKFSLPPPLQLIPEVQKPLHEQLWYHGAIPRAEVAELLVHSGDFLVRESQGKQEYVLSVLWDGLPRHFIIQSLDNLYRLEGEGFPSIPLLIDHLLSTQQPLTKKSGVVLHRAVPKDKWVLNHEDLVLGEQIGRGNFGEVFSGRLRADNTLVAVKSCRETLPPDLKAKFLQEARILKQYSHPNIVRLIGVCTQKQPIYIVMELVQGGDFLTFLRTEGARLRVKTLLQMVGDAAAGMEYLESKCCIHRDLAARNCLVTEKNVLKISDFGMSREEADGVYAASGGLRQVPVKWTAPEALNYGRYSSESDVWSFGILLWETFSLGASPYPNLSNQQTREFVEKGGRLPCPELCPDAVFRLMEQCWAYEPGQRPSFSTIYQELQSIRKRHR
# [9] = system: c-Src; experiment: as above
# [10] = system: c-Abl (mouse); experiment: as above
# [11] = target: Fyn (UniProt P06241); experiment: as above
# [12] = target: FGFR1 (UniProt P11362); experiment: as above
# Chain of FGFR1 (P11362 whole entry, looked up): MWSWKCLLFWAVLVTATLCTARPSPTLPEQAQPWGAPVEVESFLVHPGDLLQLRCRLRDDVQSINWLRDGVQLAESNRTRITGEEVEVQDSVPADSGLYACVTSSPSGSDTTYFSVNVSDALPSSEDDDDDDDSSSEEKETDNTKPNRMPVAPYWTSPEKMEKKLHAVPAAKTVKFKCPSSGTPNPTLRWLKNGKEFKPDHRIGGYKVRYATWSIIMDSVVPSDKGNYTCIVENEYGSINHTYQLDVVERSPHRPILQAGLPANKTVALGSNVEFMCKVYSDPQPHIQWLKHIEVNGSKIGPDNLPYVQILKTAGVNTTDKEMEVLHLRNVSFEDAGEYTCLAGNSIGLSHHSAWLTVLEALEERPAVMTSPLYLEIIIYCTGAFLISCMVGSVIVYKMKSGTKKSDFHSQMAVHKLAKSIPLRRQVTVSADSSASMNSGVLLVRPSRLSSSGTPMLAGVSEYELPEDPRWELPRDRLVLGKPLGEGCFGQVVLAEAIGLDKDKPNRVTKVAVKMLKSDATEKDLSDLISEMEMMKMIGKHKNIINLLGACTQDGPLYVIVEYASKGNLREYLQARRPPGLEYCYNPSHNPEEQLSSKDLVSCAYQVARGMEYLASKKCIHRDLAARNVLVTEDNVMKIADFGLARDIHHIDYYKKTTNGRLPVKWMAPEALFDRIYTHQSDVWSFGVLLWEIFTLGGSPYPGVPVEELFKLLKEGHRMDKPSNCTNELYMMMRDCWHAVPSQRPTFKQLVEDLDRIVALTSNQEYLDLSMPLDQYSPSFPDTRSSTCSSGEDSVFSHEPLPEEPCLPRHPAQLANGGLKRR
# [13] = target: EPHB2 (UniProt P29323); experiment: as above
# Chain of EPHB2 (P29323 whole entry, looked up): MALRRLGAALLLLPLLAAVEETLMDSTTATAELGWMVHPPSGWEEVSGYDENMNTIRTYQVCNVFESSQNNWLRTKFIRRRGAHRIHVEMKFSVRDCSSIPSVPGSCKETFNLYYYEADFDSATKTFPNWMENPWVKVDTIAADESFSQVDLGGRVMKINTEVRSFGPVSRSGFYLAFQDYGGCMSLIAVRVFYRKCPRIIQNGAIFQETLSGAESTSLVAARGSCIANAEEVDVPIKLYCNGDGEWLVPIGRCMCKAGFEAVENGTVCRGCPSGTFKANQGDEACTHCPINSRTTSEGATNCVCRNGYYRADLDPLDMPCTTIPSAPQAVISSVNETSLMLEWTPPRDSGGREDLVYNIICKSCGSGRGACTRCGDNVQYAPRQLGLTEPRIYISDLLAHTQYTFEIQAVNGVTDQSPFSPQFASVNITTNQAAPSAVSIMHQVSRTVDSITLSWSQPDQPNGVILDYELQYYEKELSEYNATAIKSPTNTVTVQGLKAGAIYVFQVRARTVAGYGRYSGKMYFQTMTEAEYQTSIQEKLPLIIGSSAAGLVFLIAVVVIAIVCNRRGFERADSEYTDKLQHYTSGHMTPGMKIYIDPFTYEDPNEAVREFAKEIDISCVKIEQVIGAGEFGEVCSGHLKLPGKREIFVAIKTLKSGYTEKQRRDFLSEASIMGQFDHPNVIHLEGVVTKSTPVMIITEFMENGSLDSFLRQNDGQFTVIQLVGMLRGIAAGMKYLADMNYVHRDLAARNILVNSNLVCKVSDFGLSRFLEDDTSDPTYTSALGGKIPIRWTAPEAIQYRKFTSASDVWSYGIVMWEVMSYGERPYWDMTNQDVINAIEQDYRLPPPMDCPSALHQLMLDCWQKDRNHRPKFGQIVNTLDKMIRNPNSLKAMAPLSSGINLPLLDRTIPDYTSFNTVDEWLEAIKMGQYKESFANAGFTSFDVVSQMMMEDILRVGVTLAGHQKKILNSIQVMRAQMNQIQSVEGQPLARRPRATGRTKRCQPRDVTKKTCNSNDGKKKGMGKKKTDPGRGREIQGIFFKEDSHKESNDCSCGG
# [14] = system: AncSZ; experiment: as above
# [15] = target: MERTK (UniProt Q12866); experiment: as above
# [16] = target: Hck (UniProt P08631); experiment: as above
# Chain of Hck (P08631 whole entry, looked up, the tested form may be a part): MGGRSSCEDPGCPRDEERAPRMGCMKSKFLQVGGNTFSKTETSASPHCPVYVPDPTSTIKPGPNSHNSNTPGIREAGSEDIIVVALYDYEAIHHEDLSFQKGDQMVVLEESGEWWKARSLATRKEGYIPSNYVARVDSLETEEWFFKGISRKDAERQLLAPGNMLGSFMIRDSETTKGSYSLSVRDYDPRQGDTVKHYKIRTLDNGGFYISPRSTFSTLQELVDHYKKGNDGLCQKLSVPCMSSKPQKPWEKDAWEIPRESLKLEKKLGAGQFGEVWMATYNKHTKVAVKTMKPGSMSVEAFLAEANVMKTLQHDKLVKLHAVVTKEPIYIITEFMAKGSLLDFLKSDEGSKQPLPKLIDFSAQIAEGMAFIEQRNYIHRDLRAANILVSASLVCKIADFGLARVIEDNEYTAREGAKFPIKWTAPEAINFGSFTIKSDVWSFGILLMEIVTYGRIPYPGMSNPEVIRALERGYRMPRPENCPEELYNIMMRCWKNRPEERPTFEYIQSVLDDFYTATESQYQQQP
# 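For SH2 binding enrichment of the phosphorylated peptide, bacterial display in this document: peptide library displayed on the E. coli surface as eCPX fusions, selected cells deep-sequenced, score is each peptide's frequency after selection divided by its frequency in the input.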
# 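For phosphorylation enrichment, bacterial display in this document: 11-residue human phosphosite peptides and single-mutation variants displayed on the E. coli surface, counted by deep sequencing, each peptide's frequency after selection divided by its frequency in the unselected input library; frequency after pTyr selection over input frequency; kinase dosed for 20-30% of maximal phosphorylation in three min.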
Sequence,SH2 binding enrichment [1],SH2 binding enrichment [2],SH2 binding enrichment [3],phosphorylation enrichment [4],phosphorylation enrichment [5],phosphorylation enrichment [6],phosphorylation enrichment [7],phosphorylation enrichment [8],phosphorylation enrichment [9],phosphorylation enrichment [10],phosphorylation enrichment [11],phosphorylation enrichment [12],phosphorylation enrichment [13],phosphorylation enrichment [14],phosphorylation enrichment [15],phosphorylation enrichment [16]
TFLRTYTDAMQ [TSPAN7_Y124],0.761,0.864,0.846,0.379,0.51,0.548,0.726,0.813,0.413,0.552,0.396,0.438,0.488,0.791,0.37,0.506
NTGGYYDLYGG [PTPN11_Y63_D61G],0.928,0.871,5.92,3.33,1.98,10.8,5.82,1.18,5.05,0.756,8.66,13.3,3.74,1.51,7.92,8.38
FDAHNYHPLPV [OAT_Y55_G51D_YF],0.731,0.634,0.841,1.13,0.635,5.97,1.02,0.734,0.556,0.807,0.501,10.7,0.762,0.731,1.09,1.1
DFFDLYGGEKF [PTPN11_Y66_YF],0.904,0.639,0.56,0.682,0.569,0.629,1.06,1,2.79,0.967,2.12,0.523,0.525,0.912,0.441,3.08
NTADYYDLYGG [PTPN11_Y63_G60A],1.05,0.81,0.782,1.59,14.9,15.3,3.39,1.47,5.99,1.13,6.09,16.2,14.7,3.44,3.04,5.89
RHPEVYHHLGI [NVL_Y290_V295I],1.09,1.11,0.932,0.641,0.837,0.999,0.834,0.835,0.621,0.731,0.908,1.14,0.599,0.694,0.71,1.53
QFPDIYAREEV [CRX_Y67_V66I_YF],1.02,0.9,0.525,0.707,0.628,1.26,2.02,1.91,1.23,0.99,0.959,1.15,1.21,1.82,0.773,1.56
ILTLKYPIERG [ACTA1_Y71_H75R],0.901,1.01,0.691,0.407,0.542,0.655,0.675,0.812,0.479,0.581,0.554,0.572,0.663,0.669,0.442,0.49
PPPELYFVKVD [TERT_Y707],1.18,1.04,0.534,0.626,0.629,1.28,2.84,1.81,1.55,1.19,0.962,0.638,0.49,1.76,2.69,1.4
LTSKPYAFTAQ [NDUFS1_Y236_R241Q],0.89,0.906,0.692,0.524,0.469,0.371,0.625,0.696,0.345,0.521,0.489,0.445,0.471,0.542,0.411,0.363
LVMFISAIFGM [SCN1A_Y1684_Y1684S],1.39,0.842,0.893,1.33,1.1,1.46,1.77,2.05,0.922,1.36,0.788,1.15,1.07,1.69,0.722,0.804
DTSKMYIPHTD [EXPH5_Y782],0.679,0.512,0.417,0.436,0.487,0.577,0.606,0.786,0.371,0.549,0.372,0.445,0.405,0.624,0.399,0.427
VILARYGPAWR [CYP2D6_Y124_F120I],0.828,0.547,0.385,0.407,0.513,0.608,0.808,1.09,0.503,0.603,0.527,0.608,0.614,1.09,0.482,0.602
SYDLDYDSVQP [MYC_Y16_N11S],0.804,0.633,1.19,0.995,1.03,0.862,1.04,1.21,0.796,0.741,0.723,0.589,1.73,2.5,0.443,0.762
RGERPYGGGGG [FUS_Y526_R522G],1.24,0.673,0.661,0.337,0.185,0.377,0.65,0.643,0.415,0.397,0.474,0.419,0.418,0.487,0.48,0.444
KEAVLYPHLPP [SQSTM1_Y383_A381V],0.911,0.658,0.514,0.363,0.409,0.646,0.659,0.727,0.464,0.798,0.415,0.444,0.579,0.566,0.422,0.385
